PMC7048138

Target: microtubules of Xenopus S3 cells stably expressing EGFP-α-tubulin (Xenopus laevis (endogenous in S3 cells); cDNA of the EGFP-tagged copy not stated | Xenopus laevis (endogenous in S3 cells))
Assay: fluorescence molecule counting on microtubules in cells

B1: mCherryFP-TgDCX (full-length wild-type TgDCX, mCherryFP at the N-terminus) (natural protein)
chain: MACGIPWKLARRDELMATRQAERPGEYFPPPYPPCPPTVVTPLRTSAYDFPEATFVTRPCLPAKKATGHKNVFERLTDTAYYTGSHRERFDEFGNGRGIAGREYLYAYDGLTESPSRCHEVYSSVIKRPRKPVVTPGTLGIQRFGVQIPAPRLMWLYRNGDKHDDGTPFFVRPYIKSMESLYQQITKEITPIAGPVRRIFDQNFRVITDLDDIVDGAKYLCTSGEPPAAYDRLEKFLSEWVIQKSQTKVPSQFFVV
  DCX molecules per micron (short, smoothly curved microtubule arcs) (molecules per micron): 4850
  TgDCX molecules per micron of fiber length ("flexible" microtubules) (molecules per micron): 1460
  stoichiometry N (TgDCX molecules per tubulin dimer): 0.9
